# Source: the DeepSol protein solubility set
# Test: soluble on expression in E. coli; label from the status in PepcDB or PDB records
row,Sequence,soluble on expression in E. coli
1,MHGIDLHTHSNISDGTLSPSCLVDAAIACGIHTLALTDHDTMDGLETAIQQAQGHDIQIISGAEISSQWSRPNTKKAYGVHIVALNMQNPEPLLDALVIQKNIRAERAQQICQILQQCTGQDIYTDVLLKVEGEPDRITRTHIAKALVEKEIVARPQQAFDRFLKEGKRAYVKFDGLNLADTIRIIHESEGFAILAHPTRYDLSSTNVRYLIELFAKMGGDAVELPPSVDPVSTRQMIDRIIQQFDLKVSIGSDFHGENMPWIKLGHTPQPNPHQTGIWESFR,not soluble
2,MQTEFLTGAPTRSAAFPVTGGDWGTAGILQTPTARMNDAGEASLSMSHVSPYTRLNFALQPLDWLEIGFRYTDVSNQPYGPVSLSGTQSYKDKSIDAKIRLWRESAYLPDVAVGFRDIAGSGLFSGEYLVASKRTGPFDWSVGLGWGYMGARGNLRNPLSMISRRFDDRANSATPNGGELGYGSWFRGRVSPFGGVQYQTPDERLILKAEYDGNDYRHEPFGQVLKERSPFNFGAVYRATRNIDLSVGFERGTRVMFGVSLHGNLKRATMPKLGNPPPVPVTQPAANAGPRTHAAGAPTRGGRSAVASTPRIEGASPSPFDRDWSDTVAQLQAQTNWHVRSIRALGMDLVIEFDDVDAFYLQDQIDRIATILNRDAPLNVRTFHVVALTHGVPVADYQVQRTQWFASRTRALVPSEVAPATTLGRPLTNQSIDMLPPLFEQRPRAFVLSVGPGYQQTLGGPNGFLLYQISANAYGELRMPGGAWLGGELNVGLVDNYGKFTYTADSKLPRVRTYLREYLTTSRVTLPLLQLTKIGRLGNDQFYSVYGGLLESMFAGVGVEWLYRPAHSRLAIGVDVNAVRQRGFRQDFSMRGYKTLTGHVTAYWDTGWQGVQINLSVGQYLAKDKGATLDISRRFRNGVVIGAYATKTNVSPAQFGEGSFDKGIYVTIPFDAMMTRSSSSIANLRWNPVTRDGGAKLDRRYPLYDLTDMGERRSLWYAPPDGAVSPLEHHHHHH,not soluble
3,MIGGLFIYNHKGEVLISRVYRDDIGRNAVDAFRVNVIHARQQVRSPVTNIARTSFFHVKRSNIWLAAVTKQNVNAAMVFEFLYKMCDVMAAYFGKISEENIKNNFVLIYELLDEILDFGYPQNSETGALKTFITQQGIKSQHQTKEEQSQITSQVTGQIGWRREGIKYRRNELFLDVLESVNLLMSPQGQVLSAHVSGRVVMKSYLSGMPECKFGMNDKIVIEKQGKGTADETSKSGKQSIAIDDCTFHQCVRLSKFDSERSISFIPPDGEFELMRYRTTKDIILPFRVIPLVREVGRTKLEVKVVIKSNFKPSLLAQKIEVRIPTPLNTSGVQVICMKGKAKYKASENAIVWKIKRMAGMKESQISAEIELLPTNDKKKWARPPISMNFEVPFAPSGLKVRYLKVFEPKLNYSDHDVIKWVRYIGRSGIYETRC,soluble
4,YANRESLIKRYTLKVLEQIAWLPEAQSLDEAKVQEALEDASQTIDSYLGGRYVLPLKTVPAVLERHCCYIARYFLEKNRATDQARQDYEDTIRFLEKVASGAISLGLSDDDETVESENGAMMESAGSVWGRNT,not soluble
5,MSSPSSASESDSSQMSLLATPPVAIRRPLPYPRDIISSPLEVATPVTVSPTDFMPIRELVTTPYHISTPVLITPVDARSISREIVRVNRIRRVRTRQASRSVFNSVRRRLSMITANRTEIQMNTPQTLPRSKRIDNTSTAMEPVSSNAFQKIISEILNNSPACTETINSTIIPSNSSNCAKLREFNRLESIGIAQMAVENENEILEALDFIEWNIRLMSCESDYIDKVLEDLENEKLNKQNKWERIELILSLIQD,not soluble
6,MGSDKIHHHHHHMSTPLSHATLEQLFLNARTHSHWQPRPVSDELLHQLHELLKQAPTSANCSPARFVFVKSEAAKAKLKPCLAAGNVDKTMAAPVCVIVAHDTRFYEHLPQLFPHADAKSWFEGNQPLIDTTAFRNGTLQGAYLILAARSLGLDCGPMSGFDNAAVDAAFFPDGRVKSNFLINLGYGEADKLFPRSPRFGFDEACQIL,not soluble
7,MDIVTLKDFYASVLGKRVQETLCGQLNLCWPDLTGKRVMGFGYALPYLSALRMRAQQCLAFMPAGQGALPWPCADKVATALVFEEDLPLPDASIDCILLIHALEYTENSFETLNEIWRVLVPNGQLIVIVPNRSGLWARNACTPFGYGEPYSRQQIVRLFEKTHFVSGSIQEVVHYMPSSGSVSRFFSFFYEPVARHLLPYFGGLLICQAQKRVYQGLEHHHHHH,not soluble
